Here are results for one substance from paper PMC8784642.

For the experiment, the target named is Thermoanaerobacter italicus TagA^FL∗ (residues M1-R244, I203E/L209Q/L212K/I216E), solubility-enhanced TagA (Thermoanaerobacter italicus). Kind of experiment: AUC.

Usually Kd stands for the constant that tells how readily two partners part at equilibrium. One may read the stoichiometry N as the number of molecules, sites or subunits per partner or assembly.

For “Thermoanaerobacter italicus TagA^FL∗ (residues M1-R244, I203E/L209Q/L212K/I216E), solubility-enhanced TagA (enzyme)”, the dissociation constant (Kd) was 210 µM and the stoichiometry N was found to be 2.
